Source: US20250296960A1, “PEPTIDE COMPOSITIONS AND METHODS OF USE THEREOF” (priority 2022, published 2025)
Read-outs that look alike come from different tables or passages of the source. Numbered stars: 1 amine (or outer) side, 2 acyl side, 3 side chain; on linkers, the order of the positions; unused ones are H or OH. Square brackets hold non-standard residues; d marks the D form. Primed or numbered codes have the meaning given here. Side chains are listed from the residue outwards. Ends that are not written are not given here. Peptide text beside a SMILES is read from it. * marks the point of attachment. C18 = C18 fatty acid (C16-C22 fatty acids conjugated via γGlu/8-amino-3,6-dioxaoctanoic acid spacers); X1 = O=C(O)CCCCCCCCCCCCCCCCC(=O)N[C@@H](CCC(=O)NCCOCCOCC(=O)NCCOCCOCC(=O)NCCN1C(=O)CC(*)C1=O)C(=O)O; methoxinine = methoxinine (m*), COCC[C@H](N[*:1])C(=O)[*:2]; C18″ = C18 fatty acid moiety (of 2OEG-γGlu-C18, K*); Biotin = O=C1N[C@H]2[C@H](CS[C@H]2CCCCC(=O)*)N1; γGlu = O=C(O)[C@H](CCC(=O)[*:2])N[*:1]; AEEA = NCCOCCOCC(=O)O; Aib = CC(C)(N)C(=O)O

Columns and labels:
[1] = In vivo efficacy in mAMLN (NASH) mice, 2 weeks
[2] = biological target: T1, human GLP-1R (Homo sapiens, UniProt P43220); test: cAMP assay (HitHunter cAMP) in GLP-1R-expressing CHO-K1 cells (GLP-1R+ cells); type: cell-based
T1 construct: host or cells: CHO-K1
T1 sequence (P43220 24-463): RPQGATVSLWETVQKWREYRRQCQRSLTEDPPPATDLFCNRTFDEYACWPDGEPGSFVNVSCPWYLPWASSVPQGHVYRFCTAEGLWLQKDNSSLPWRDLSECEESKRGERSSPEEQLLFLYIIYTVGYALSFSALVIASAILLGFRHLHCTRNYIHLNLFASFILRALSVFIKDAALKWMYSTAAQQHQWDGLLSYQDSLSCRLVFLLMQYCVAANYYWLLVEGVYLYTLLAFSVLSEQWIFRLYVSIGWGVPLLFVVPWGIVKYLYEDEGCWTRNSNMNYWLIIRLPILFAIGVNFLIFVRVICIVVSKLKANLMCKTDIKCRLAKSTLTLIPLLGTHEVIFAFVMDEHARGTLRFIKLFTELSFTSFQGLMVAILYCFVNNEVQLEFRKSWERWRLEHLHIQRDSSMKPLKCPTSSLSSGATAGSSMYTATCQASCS
In short: (§1)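 Luminescent cAMP read-out: after 30 min peptide stimulation at 37 °C in cAMP assay buffer, receptor-expressing CHO-K1 cells (seeded 7×10^3/well the night before) received antibody and detection reagents for 1 h, then Solution A for 3 h, at room temperature in the dark.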

[3] = biological target: T2, human GCGR (Homo sapiens, UniProt P47871); test: cAMP assay (HitHunter cAMP) in GCGR-expressing CHO-K1 cells (GCGR+ cells); type: cell-based
T2 construct: host or cells: CHO-K1
T2 sequence (P47871 26-477): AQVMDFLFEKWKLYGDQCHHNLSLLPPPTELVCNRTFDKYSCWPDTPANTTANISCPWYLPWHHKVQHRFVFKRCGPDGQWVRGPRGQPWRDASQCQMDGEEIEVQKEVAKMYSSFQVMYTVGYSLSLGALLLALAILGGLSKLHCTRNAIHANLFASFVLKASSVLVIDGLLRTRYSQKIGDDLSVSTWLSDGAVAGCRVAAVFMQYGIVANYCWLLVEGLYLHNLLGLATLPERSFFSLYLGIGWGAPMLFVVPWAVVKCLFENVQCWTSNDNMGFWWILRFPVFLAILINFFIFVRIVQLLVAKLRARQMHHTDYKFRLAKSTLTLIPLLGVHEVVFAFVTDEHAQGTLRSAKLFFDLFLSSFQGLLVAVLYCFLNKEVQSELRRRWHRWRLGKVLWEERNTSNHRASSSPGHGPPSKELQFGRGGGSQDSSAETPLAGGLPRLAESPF
In short: as §1

[4] = biological target: T3, human GIPR (Homo sapiens, UniProt P48546); test: cAMP assay (HitHunter cAMP) in GIPR-expressing CHO-K1 cells (GIPR+ cells); type: cell-based
T3 construct: host or cells: CHO-K1
T3 sequence (P48546 22-466): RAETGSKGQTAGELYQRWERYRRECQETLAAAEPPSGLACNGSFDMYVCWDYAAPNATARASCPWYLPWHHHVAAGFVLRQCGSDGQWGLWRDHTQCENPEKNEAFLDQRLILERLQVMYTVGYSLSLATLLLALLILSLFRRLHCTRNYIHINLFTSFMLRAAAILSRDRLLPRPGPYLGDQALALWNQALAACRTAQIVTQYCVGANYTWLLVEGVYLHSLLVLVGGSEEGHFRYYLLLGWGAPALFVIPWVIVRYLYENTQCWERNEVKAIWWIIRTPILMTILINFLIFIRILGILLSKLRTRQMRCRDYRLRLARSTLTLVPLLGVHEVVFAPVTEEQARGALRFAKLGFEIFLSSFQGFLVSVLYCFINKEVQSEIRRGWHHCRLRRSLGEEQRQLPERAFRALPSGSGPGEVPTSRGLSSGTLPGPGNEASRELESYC
In short: as §1

[5] = Body weight loss in normal C57BL/6 mice, subcutaneous dosing; type: in vivo; settings: for Weight loss (%): normal mice, after 48 or 72 hours
[6] = biological target: T4, human glucagon receptor (GCGR), expressed on CHO-K1 cells (human, UniProt P47871 26-477); test: cell-based or functional assay
T4 sequence (P47871 26-477): as the sequence (P47871 26-477) above

[7] = biological target: T5, human glucose-dependent insulinotropic polypeptide receptor (GIPR), expressed on CHO-K1 cells (human, UniProt P48546 22-466); test: cell-based or functional assay
T5 sequence (looked up): T3 sequence (P48546 22-466)

[8] = biological target: T6, human GLP-1 receptor (GLP-1R), expressed on CHO-K1 cells (human, UniProt P43220 24-463); test: cell-based or functional assay
[9] = biological target: T4, human glucagon receptor (GCGR), …; test: cell-based or functional assay; remark: listed apart in the source
[10] = biological target: T5, human glucose-dependent insulinotropic …; test: cell-based or functional assay; remark: listed apart in the source
[11] = biological target: T6, human GLP-1 receptor (GLP-1R), …; test: cell-based or functional assay; remark: listed apart in the source
[12] = biological target: T4, human glucagon receptor (GCGR), …; test: cell-based or functional assay; remark: listed apart in the source
[13] = biological target: T5, human glucose-dependent insulinotropic …; test: cell-based or functional assay; remark: listed apart in the source
[14] = biological target: T6, human GLP-1 receptor (GLP-1R), …; test: cell-based or functional assay; remark: listed apart in the source
[15] = biological target: T4, human glucagon receptor (GCGR), …; test: cell-based or functional assay; remark: listed apart in the source
[16] = biological target: T5, human glucose-dependent insulinotropic …; test: cell-based or functional assay; remark: listed apart in the source
[17] = biological target: T6, human GLP-1 receptor (GLP-1R), …; test: cell-based or functional assay; remark: listed apart in the source
[18] = Table 19, normalised to activity at GLP-1R
[19] = Table 24, ratio of EC50 of native ligand over peptide

CC[C@H](C)[C@H](NC(=O)[C@H](CC(C)C)NC(=O)[C@H](Cc1c[nH]c2ccccc12)NC(=O)[C@H](CCC(N)=O)NC(=O)[C@@H](NC(=O)[C@H](Cc1ccccc1)NC(=O)[C@H](CC(=O)O)NC(=O)[C@H](CCCNC(=N)N)NC(=O)[C@H](C)NC(=O)[C@H](CCSC)NC(=O)[C@H](CCSC)NC(=O)[C@H](Cc1ccc(O)cc1)NC(=O)[C@H](CC(=O)O)NC(=O)[C@H](CC(C)C)NC(=O)[C@H](Cc1ccc(O)cc1)NC(=O)[C@H](CCCCN)NC(=O)[C@H](CO)NC(=O)[C@H](Cc1ccc(O)cc1)NC(=O)[C@H](CC(=O)O)NC(=O)[C@H](CO)NC(=O)[C@@H](NC(=O)[C@H](Cc1ccccc1)NC(=O)[C@@H](NC(=O)CNC(=O)[C@H](CCC(N)=O)NC(=O)C(C)(C)NC(=O)[C@@H](N)Cc1ccc(O)cc1)[C@@H](C)O)[C@@H](C)O)C(C)C)C(=O)N[C@@H](CCC(=O)O)C(=O)NCC(=O)NCC(=O)N1CCC[C@H]1C(=O)N[C@@H](CO)C(=O)N[C@@H](CO)C(=O)NCC(=O)N[C@@H](C)C(=O)N1CCC[C@H]1C(=O)N1CCC[C@H]1C(=O)N1CCC[C@H]1C(=O)N[C@@H](CO)C(=O)N[C@@H](CSC1CC(=O)N(CCNC(=O)COCCOCCNC(=O)COCCOCCNC(=O)CC[C@H](NC(=O)CCCCCCCCCCCCCCCCC(=O)O)C(=O)O)C1=O)C(N)=O (some centres unmarked) [5-1A] (H-Y[Aib]QGTFTSDYSKYLDYMMARDFVQWLIEGGPSSGAPPPSC(X1)-NH2; N-terminus assumed)
blood glucose, in words ([1]; 20 nmol/kg s.c. Q2D, 2 weeks): reduce blood glucose
body weight, in words ([1]; 20 nmol/kg s.c. Q2D, 2 weeks): reduce body weight
hepatic triglyceride content, in words ([1]; end of treatment): reduce hepatic triglyceride content
liver weight, in words ([1]; end of treatment): reduce liver weight
mRNA levels of TGF-β1 (inflammation marker) and ACTA2 (fibrosis marker), in words ([1]; end of treatment): reduce both TGF-β1 and ACTA2
Activity relative to STD peptide (%), GLP-1R ([2]; Table 18): 187%
Activity relative to GLP-1 (%), GLP-1R [2, 18]: 100%
Relative % to native ligand, GLP-1R [2, 19]: 187%
Ratio vs. GLP-1R, GLP-1R ([2]; Table 25): 100
Relative % to non-lipidated peptide, GLP-1R ([2]; Table 26): 159%
Activity relative to STD peptide (%), GCGR ([3]; Table 18): 24%
Activity relative to GLP-1 (%), GCGR [3, 18]: 13%
Relative % to native ligand, GCGR [3, 19]: 24%
Ratio vs. GLP-1R, GCGR ([3]; Table 25): 13
Relative % to non-lipidated peptide, GCGR ([3]; Table 26): 0%
Activity relative to STD peptide (%), GIPR ([4]; Table 18): 1%
Activity relative to GLP-1 (%), GIPR [4, 18]: 1%
Relative % to native ligand, GIPR [4, 19]: 1%
Ratio vs. GLP-1R, GIPR ([4]; Table 25): 1
Relative % to non-lipidated peptide, GIPR ([4]; Table 26): 11%
body weight loss effect, in words ([5]; Example 5, 20 nmol/kg s.c. QD, 4 days): Superior body weight loss effects
Weight loss (%) ([5]; 10 nmol/kg QD): 20.0 ± 2.1%
Weight loss (%) ([5]; 20 nmol/kg QD): 18.9 ± 2.0%

Y[Aib]QGTFTSDYSK([AEEA-AEEA-γGlu-C18])LLDYMMQ[Aib]DFVQYLLEGGPSSGAPPPS-NH2 [SEQ ID NO. 85]
Ratio vs. GLP-1R [6]: 305
Relative % to native ligand [6]: 38%
Ratio vs. GLP-1R [7]: 1150
Relative % to native ligand [7]: 143%
Ratio vs. GLP-1R [8]: 100
Relative % to native ligand [8]: 12%

Y[Aib]QGTFTSDYSK([AEEA-AEEA-γGlu-C18])LLDQQAQRDFVQWLLEGGPSSGAPPPS-NH2 [SEQ ID NO. 95]
Ratio vs. GLP-1R [6]: 1
Relative % to native ligand [6]: 14%
Ratio vs. GLP-1R [7]: 19
Relative % to native ligand [7]: 316%
Ratio vs. GLP-1R [8]: 100
Relative % to native ligand [8]: 1630%

B1: SEQ ID NO. 88 (peptide)
peptide: Y[Aib]QGTFTSDYSK([AEEA-AEEA-γGlu-C18])LLDYMMQKDFVQWLLEGGPSSGAPPPS-NH2
modifications: not fully specified (residue 20); printed as YAibQGT FTSDY SK*LLD YMMQB* DFVQW LLEGG PSSGA PPPS
Ratio vs. GLP-1R [6]: 120
Relative % to native ligand [6]: 20%
Ratio vs. GLP-1R [7]: 432
Relative % to native ligand [7]: 71%
Ratio vs. GLP-1R [8]: 100
Relative % to native ligand [8]: 16%

Y[Aib]QGTFTSDYSK([AEEA-AEEA-γGlu-C18])LLDYMMQ[Aib]DFVQWLLEGGPSSGAPPPS-NH2 [SEQ ID NO. 84]
Ratio vs. GLP-1R [6]: 28
Relative % to native ligand [6]: 20%
Ratio vs. GLP-1R [7]: 470
Relative % to native ligand [7]: 335%
Ratio vs. GLP-1R [8]: 100
Relative % to native ligand [8]: 71%

Y[Aib]QGTFTSDYSK([AEEA-AEEA-γGlu-C18])YLDYMMQRDFVK(Biotin)WLLEGGPSSGAPPPS (ends and bridges not checked) [SEQ ID NO. 97]
Ratio vs. GLP-1R [6]: 28
Relative % to native ligand [6]: 30%
Ratio vs. GLP-1R [7]: 117
Relative % to native ligand [7]: 123%
Ratio vs. GLP-1R [8]: 100
Relative % to native ligand [8]: 106%

Y[Aib]QGTFTSDYSK([AEEA-AEEA-γGlu-C18])LLDYMMQRDFVQWLLEGGPSSGAPPPSK(Biotin)-NH2 [SEQ ID NO. 90]
Ratio vs. GLP-1R [6]: 39
Relative % to native ligand [6]: 19%
Ratio vs. GLP-1R [7]: 311
Relative % to native ligand [7]: 154%
Ratio vs. GLP-1R [8]: 100
Relative % to native ligand [8]: 50%

H[Aib]QGTFTSDYSK([AEEA-AEEA-γGlu-C18″])YLDYMMARDFVQWLIEGGPSSGAPPPS-NH2 [Peptide No. 5D]
Ratio vs. GLP-1R [9]: 204
Ratio vs. GLP-1R [10]: 8
Ratio vs. GLP-1R [11]: 100
Relative % to native ligand [12]: 72%
Relative % to native ligand [13]: 3%
Relative % to native ligand [14]: 35%
Relative % to non-lipidated peptide [15]: 10%
Relative % to non-lipidated peptide [16]: 93%
Relative % to non-lipidated peptide [17]: 6%

B2: SEQ ID NO. 86 (peptide)
peptide: Y[Aib]QGTFTSDYSK([AEEA-AEEA-γGlu-C18])LLDKMMQRDFVQWLLEGGPSSGAPPPS-NH2
modifications: not fully specified (residue 16); printed as YAibQGT FTSDY SK*LLD B*MMQR DFVQW LLEGG PSSGA PPPS
Ratio vs. GLP-1R [6]: 157
Relative % to native ligand [6]: 142%
Ratio vs. GLP-1R [7]: 639
Relative % to native ligand [7]: 575%
Ratio vs. GLP-1R [8]: 100
Relative % to native ligand [8]: 90%

Y[Aib]QGTFTSDYSK([AEEA-AEEA-γGlu-C18])LLDYMMQ[Aib]DFVQYLLEGGPSSGAPPPSK-NH2 (not fully specified (residue 40)) [SEQ ID NO. 92]
Ratio vs. GLP-1R [6]: 243
Relative % to native ligand [6]: 19%
Ratio vs. GLP-1R [7]: 1530
Relative % to native ligand [7]: 120%
Ratio vs. GLP-1R [8]: 100
Relative % to native ligand [8]: 8%

B3: SEQ ID NO. 89 (peptide)
peptide: Y[Aib]QGTFTSDYSK([AEEA-AEEA-γGlu-C18])LLDYMMQRDFVKWLLEGGPSSGAPPPS-NH2
modifications: not fully specified (residue 24); printed as YAibQGT FTSDY SK*LLD YMMQR DFVB*W LLEGG PSSGA PPPS
Ratio vs. GLP-1R [6]: 117
Relative % to native ligand [6]: 45%
Ratio vs. GLP-1R [7]: 399
Relative % to native ligand [7]: 154%
Ratio vs. GLP-1R [8]: 100
Relative % to native ligand [8]: 38%

Y[Aib]QGTFTSDYSK([AEEA-AEEA-γGlu-C18])LLDY[methoxinine][methoxinine]QRDFVQWLLEGGPSSGAPPPS-NH2 [SEQ ID NO. 96]
Ratio vs. GLP-1R [6]: 10
Relative % to native ligand [6]: 17%
Ratio vs. GLP-1R [7]: 56
Relative % to native ligand [7]: 102%
Ratio vs. GLP-1R [8]: 100
Relative % to native ligand [8]: 181%
